Changes are numbered by the printed parent chain.
B1: H0610-G1dh/none-Hi-Kn010G3/L0039-k0 (antibody, human IgG1, kappa)
heavy: not shown
chain: EPKSSDKTHTCPPCPAPELLGGPSVFLFPPKPKDTLMISRTPEVTCVVVDVSHEDPEVKFNWYVDGVEVHNAKTKPREEQYNSTYRVVSVLTVLHQDWLNGKEYKCKVSNKALPAPIEKTISKAKGQPREPQVCTLPPSRDELTKNQVSLWCLVKGFYPSDIAVEWESNGQPENNYKTTPPVLDSDGSFFLYSKLTVDKSRWQQGNVFSCSVMHEALHNRYTQKSLSLSP
light: DIVMTQSPLSLPVTPGEPASISCRSSQSLVHHNRNTYLHWYQQKPGQAPRLLIYKVSNRFSGVPDRFSGSGSGTDFTLKISRVEAEDVGVYYCGQGTQVPYTFGQGTKLEIKRTVAAPSVFIFPPSDEQLKSGTASVVCLLNNFYPREAKVQWKVDNALQSGNSQESVTEQDSKDSTYSLSSTLTLSKADYEKHKVYACEVTHQGLSSPVTKSFNRGEC
notes: single-arm (one Fab)
B2: H0610-G1dh/none-Hi-Kn010G3/L0143-k0 (antibody, human IgG1, kappa)
heavy: not shown
chain: B1 chain
light: B1 light with H32S, S61P
notes: single-arm (one Fab)
B3: H0610-G1dh/none-Hi-Kn010G3/L0186-k0 (antibody, human IgG1, kappa)
heavy: not shown
chain: B1 chain
light: B1 light with H32S, V99W
notes: single-arm (one Fab)
B4: H0610-G1dh/none-Hi-Kn010G3/L0163-k0 (antibody, human IgG1, kappa)
heavy: not shown
chain: B1 chain
light: B1 light with H32S, G94Y
notes: single-arm (one Fab)
B5: H0610-G1dh/none-Hi-Kn010G3/L0124-k0 (antibody, human IgG1, kappa)
heavy: not shown
chain: B1 chain
light: B1 light with H32S, F60L
notes: single-arm (one Fab)
B6: H0610-G1dh/none-Hi-Kn010G3/L0141-k0 (antibody, human IgG1, kappa)
heavy: not shown
chain: B1 chain
light: B1 light with H32S, S61M
notes: single-arm (one Fab)
B7: H0610-G1dh/none-Hi-Kn010G3/L0145-k0 (antibody, human IgG1, kappa)
heavy: not shown
chain: B1 chain
light: B1 light with H32S, S61R
notes: single-arm (one Fab)
B8: H0610-G1dh/none-Hi-Kn010G3/L0134-k0 (antibody, human IgG1, kappa)
heavy: not shown
chain: B1 chain
light: B1 light with H32S, F60Y
notes: single-arm (one Fab)
B9: H0610-G1dh/none-Hi-Kn010G3/L0066-k0 (antibody, human IgG1, kappa)
heavy: not shown
chain: B1 chain
light: B1 light with H32S, N35H
notes: single-arm (one Fab)
B10: H0610-G1dh/none-Hi-Kn010G3/L0157-k0 (antibody, human IgG1, kappa)
heavy: not shown
chain: B1 chain
light: B1 light with H32S, G94N
notes: single-arm (one Fab)
B11: H0610-G1dh/none-Hi-Kn010G3/L0151-k0 (antibody, human IgG1, kappa)
heavy: not shown
chain: B1 chain
light: B1 light with H32S, G94E
notes: single-arm (one Fab)
B12: H0610-G1dh/none-Hi-Kn010G3/L0085-k0 (antibody, human IgG1, kappa)
heavy: not shown
chain: B1 chain
light: B1 light with H32S, H39E
notes: single-arm (one Fab)
B13: H0610-G1dh/none-Hi-Kn010G3/L0152-k0 (antibody, human IgG1, kappa)
heavy: not shown
chain: B1 chain
light: B1 light with H32S, G94F
notes: single-arm (one Fab)
B14: H0610-G1dh/none-Hi-Kn010G3/L0127-k0 (antibody, human IgG1, kappa)
heavy: not shown
chain: B1 chain
light: B1 light with H32S, F60P
notes: single-arm (one Fab)
B15: H0610-G1dh/none-Hi-Kn010G3/L0168-k0 (antibody, human IgG1, kappa)
heavy: not shown
chain: B1 chain
light: B1 light with H32S, G96T
notes: single-arm (one Fab)
B16: H0610-G1dh/none-Hi-Kn010G3/L0167-k0 (antibody, human IgG1, kappa)
heavy: not shown
chain: B1 chain
light: B1 light with H32S, G96S
notes: single-arm (one Fab)
B17: H0610-G1dh/none-Hi-Kn010G3/L0093-k0 (antibody, human IgG1, kappa)
heavy: not shown
chain: B1 chain
light: B1 light with H32S, H39Q
notes: single-arm (one Fab)
B18: H0610-G1dh/none-Hi-Kn010G3/L0107-k0 (antibody, human IgG1, kappa)
heavy: not shown
chain: B1 chain
light: B1 light with H32S, N58I
notes: single-arm (one Fab)
B19: H0610-G1dh/none-Hi-Kn010G3/L0075-k0 (antibody, human IgG1, kappa)
heavy: not shown
chain: B1 chain
light: B1 light with H32S, N35W
notes: single-arm (one Fab)
B20: H0610-G1dh/none-Hi-Kn010G3/L0065-k0 (antibody, human IgG1, kappa)
heavy: not shown
chain: B1 chain
light: B1 light with H32S, N35G
notes: single-arm (one Fab)
B21: H0610-G1dh/none-Hi-Kn010G3/L0115-k0 (antibody, human IgG1, kappa)
heavy: not shown
chain: B1 chain
light: B1 light with H32S, N58W
notes: single-arm (one Fab)
B22: H0610-G1dh/none-Hi-Kn010G3/L0203-k0 (antibody, human IgG1, kappa)
heavy: not shown
chain: B1 chain
light: B1 light with L29P, H32S, L38I
notes: single-arm (one Fab)
B23: H0610-G1dh/none-Hi-Kn010G3/L0148-k0 (antibody, human IgG1, kappa)
heavy: not shown
chain: B1 chain
light: B1 light with H32S, S61W
notes: single-arm (one Fab)
B24: H0610-G1dh/none-Hi-Kn010G3/L0181-k0 (antibody, human IgG1, kappa)
heavy: not shown
chain: B1 chain
light: B1 light with H32S, V99P
notes: single-arm (one Fab)
B25: H0610-G1dh/none-Hi-Kn010G3/L0154-k0 (antibody, human IgG1, kappa)
heavy: not shown
chain: B1 chain
light: B1 light with H32S, G94I
notes: single-arm (one Fab)
B26: H0610-G1dh/none-Hi-Kn010G3/L0149-k0 (antibody, human IgG1, kappa)
heavy: not shown
chain: B1 chain
light: B1 light with H32S, G94A
notes: single-arm (one Fab)
B27: H0610-G1dh/none-Hi-Kn010G3/L0201-k0 (antibody, human IgG1, kappa)
heavy: not shown
chain: B1 chain
light: B1 light with S28P, L29P, H32S
notes: single-arm (one Fab)
B28: H0610-G1dh/none-Hi-Kn010G3/L0175-k0 (antibody, human IgG1, kappa)
heavy: not shown
chain: B1 chain
light: B1 light with H32S, V99H
notes: single-arm (one Fab)
B29: H0610-G1dh/none-Hi-Kn010G3/L0042-k0 (antibody, human IgG1, kappa)
heavy: not shown
chain: B1 chain
light: B1 light with H32M
notes: single-arm (one Fab)
B30: H0610-G1dh/none-Hi-Kn010G3/L0155-k0 (antibody, human IgG1, kappa)
heavy: not shown
chain: B1 chain
light: B1 light with H32S, G94L
notes: single-arm (one Fab)
B31: H0610-G1dh/none-Hi-Kn010G3/L0041-k0 (antibody, human IgG1, kappa)
heavy: not shown
chain: B1 chain
light: B1 light with H32L
notes: single-arm (one Fab)
B32: H0610-G1dh/none-Hi-Kn010G3/L0160-k0 (antibody, human IgG1, kappa)
heavy: not shown
chain: B1 chain
light: B1 light with H32S, G94T
notes: single-arm (one Fab)
B33: H0610-G1dh/none-Hi-Kn010G3/L0122-k0 (antibody, human IgG1, kappa)
heavy: not shown
chain: B1 chain
light: B1 light with H32S, F60I
notes: single-arm (one Fab)
B34: H0610-G1dh/none-Hi-Kn010G3/L0082-k0 (antibody, human IgG1, kappa)
heavy: not shown
chain: B1 chain
light: B1 light with H32S, L38V
notes: single-arm (one Fab)
B35: H0610-G1dh/none-Hi-Kn010G3/L0045-k0 (antibody, human IgG1, kappa)
heavy: not shown
chain: B1 chain
light: B1 light with H32Q
notes: single-arm (one Fab)
B36: H0610-G1dh/none-Hi-Kn010G3/L0044-k0 (antibody, human IgG1, kappa)
heavy: not shown
chain: B1 chain
light: B1 light with H32P
notes: single-arm (one Fab)
B37: H0610-G1dh/none-Hi-Kn010G3/L0200-k0 (antibody, human IgG1, kappa)
heavy: not shown
chain: B1 chain
light: B1 light with S25P, L29P, H32S
notes: single-arm (one Fab)
B38: H0610-G1dh/none-Hi-Kn010G3/L0079-k0 (antibody, human IgG1, kappa)
heavy: not shown
chain: B1 chain
light: B1 light with H32S, L38I
notes: single-arm (one Fab)
B39: H0610-G1dh/none-Hi-Kn010G3/L0202-k0 (antibody, human IgG1, kappa)
heavy: not shown
chain: B1 chain
light: B1 light with L29P, H32S, N35W
notes: single-arm (one Fab)
B40: H0610-G1dh/none-Hi-Kn010G3/L0161-k0 (antibody, human IgG1, kappa)
heavy: not shown
chain: B1 chain
light: B1 light with H32S, G94V
notes: single-arm (one Fab)
B41: H0610-G1dh/none-Hi-Kn010G3/L0173-k0 (antibody, human IgG1, kappa)
heavy: not shown
chain: B1 chain
light: B1 light with H32S, V99F
notes: single-arm (one Fab)
B42: H0610-G1dh/none-Hi-Kn010G3/L0090-k0 (antibody, human IgG1, kappa)
heavy: not shown
chain: B1 chain
light: B1 light with H32S, H39M
notes: single-arm (one Fab)
B43: H0610-G1dh/none-Hi-Kn010G3/L0140-k0 (antibody, human IgG1, kappa)
heavy: not shown
chain: B1 chain
light: B1 light with H32S, S61L
notes: single-arm (one Fab)
B44: H0610-G1dh/none-Hi-Kn010G3/L0129-k0 (antibody, human IgG1, kappa)
heavy: not shown
chain: B1 chain
light: B1 light with H32S, F60R
notes: single-arm (one Fab)
B45: H0610-G1dh/none-Hi-Kn010G3/L0047-k0 (antibody, human IgG1, kappa)
heavy: not shown
chain: B1 chain
light: B1 light with H32W
notes: single-arm (one Fab)
B46: H0610-G1dh/none-Hi-Kn010G3/L0125-k0 (antibody, human IgG1, kappa)
heavy: not shown
chain: B1 chain
light: B1 light with H32S, F60M
notes: single-arm (one Fab)
B47: H0610-G1dh/none-Hi-Kn010G3/L0064-k0 (antibody, human IgG1, kappa)
heavy: not shown
chain: B1 chain
light: B1 light with H32S, N35F
notes: single-arm (one Fab)

Target: T1, soluble human GPC3 (human, UniProt P51654 25-563, limits assumed)
T1 construct: soluble human GPC3 as analyte; also called glypican 3
Experiment: SPR (Biacore), soluble human GPC3

T1 sequence (P51654 other isoform, or with tags, fused parts or gaps limits assumed, form in doubt): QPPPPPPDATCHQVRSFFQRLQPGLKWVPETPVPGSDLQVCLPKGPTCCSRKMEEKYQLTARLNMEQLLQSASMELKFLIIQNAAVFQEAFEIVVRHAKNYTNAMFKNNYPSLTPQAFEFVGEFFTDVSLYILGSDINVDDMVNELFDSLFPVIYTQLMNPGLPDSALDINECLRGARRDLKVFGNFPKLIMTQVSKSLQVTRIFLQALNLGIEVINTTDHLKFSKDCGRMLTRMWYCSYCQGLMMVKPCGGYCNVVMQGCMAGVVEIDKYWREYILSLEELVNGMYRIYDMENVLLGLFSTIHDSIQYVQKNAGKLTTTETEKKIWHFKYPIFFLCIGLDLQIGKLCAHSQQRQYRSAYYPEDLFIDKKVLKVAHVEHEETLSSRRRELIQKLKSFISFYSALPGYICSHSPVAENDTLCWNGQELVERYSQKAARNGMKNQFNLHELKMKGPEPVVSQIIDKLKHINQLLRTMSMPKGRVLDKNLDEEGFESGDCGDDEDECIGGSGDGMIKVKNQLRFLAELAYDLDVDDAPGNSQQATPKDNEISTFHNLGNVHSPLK

Kd [nM]	Binder
3.41	B1
0.573	B2
1.08	B3
3.38	B4
0.972	B5
3.86	B6
2.66	B7
2.53	B8
4.2	B9
2.6	B10
1.25	B11
1.17	B12
2.36	B13
3.12	B14
0.699	B15
0.211	B16
0.106	B17
4.38	B18
2.85	B19
4.79	B20
4.34	B21
2.11	B22
3.28	B23
3.51	B24

Kd [nM]	Binder
1.01	B25
2.16	B26
1.13	B27
3.84	B28
4.27	B29
1.28	B30
4.85	B31
2.12	B32
2.42	B33
3.43	B34
4.66	B35
4.57	B36
1.04	B37
4.23	B38
1.22	B39
0.973	B40
2.83	B41
1.12	B42
3.38	B43
4.54	B44
2.23	B45
1.71	B46
3.37	B47

From US20210388110A1 (published 2021)
